Positions of bridges follow the written chain, without caps; N, C: chain ends. Non-standard residues stand in square brackets, D forms with d. 2Nal = N[C@@H](Cc1ccc2ccccc2c1)C(=O)O; Phg = N[C@H](C(=O)O)c1ccccc1; Tle = CC(C)(C)[C@H](N)C(=O)O; Nle = CCCC[C@H](N)C(=O)O; AMF = not defined here
B1: Compound 3 (peptide)
peptide: {CH2CO}-FISGRNWVKWVC-NH2
modifications: thioether N-12
SMILES: CC[C@H](C)[C@@H]1NC(=O)[C@H](Cc2ccccc2)NC(=O)CSC[C@@H](C(N)=O)NC(=O)[C@H](C(C)C)NC(=O)[C@H](Cc2c[nH]c3ccccc23)NC(=O)[C@H](CCCCN)NC(=O)[C@H](C(C)C)NC(=O)[C@H](Cc2c[nH]c3ccccc23)NC(=O)[C@H](CC(N)=O)NC(=O)[C@H](CCCNC(=N)N)NC(=O)CNC(=O)[C@H](CO)NC1=O
B2: Compound 11 (peptide)
peptide: {CH2CO}-WISGRNWVRWVC-NH2
modifications: thioether N-12
SMILES: CC[C@H](C)[C@@H]1NC(=O)[C@H](Cc2c[nH]c3ccccc23)NC(=O)CSC[C@@H](C(N)=O)NC(=O)[C@H](C(C)C)NC(=O)[C@H](Cc2c[nH]c3ccccc23)NC(=O)[C@H](CCCNC(=N)N)NC(=O)[C@H](C(C)C)NC(=O)[C@H](Cc2c[nH]c3ccccc23)NC(=O)[C@H](CC(N)=O)NC(=O)[C@H](CCCNC(=N)N)NC(=O)CNC(=O)[C@H](CO)NC1=O
B3: Compound 6 (peptide)
peptide: {CH2CO}-FRSGRNWVKWVC-NH2
modifications: thioether N-12
SMILES: CC(C)[C@@H]1NC(=O)[C@H](Cc2c[nH]c3ccccc23)NC(=O)[C@H](CCCCN)NC(=O)[C@H](C(C)C)NC(=O)[C@H](Cc2c[nH]c3ccccc23)NC(=O)[C@H](CC(N)=O)NC(=O)[C@H](CCCNC(=N)N)NC(=O)CNC(=O)[C@H](CO)NC(=O)[C@H](CCCNC(=N)N)NC(=O)[C@H](Cc2ccccc2)NC(=O)CSC[C@@H](C(N)=O)NC1=O
B4: Compound 10 (peptide)
peptide: {CH2CO}-FISGKNWVRWVC-NH2
modifications: thioether N-12
SMILES: CC[C@H](C)[C@@H]1NC(=O)[C@H](Cc2ccccc2)NC(=O)CSC[C@@H](C(N)=O)NC(=O)[C@H](C(C)C)NC(=O)[C@H](Cc2c[nH]c3ccccc23)NC(=O)[C@H](CCCNC(=N)N)NC(=O)[C@H](C(C)C)NC(=O)[C@H](Cc2c[nH]c3ccccc23)NC(=O)[C@H](CC(N)=O)NC(=O)[C@H](CCCCN)NC(=O)CNC(=O)[C@H](CO)NC1=O
B5: Compound 7 (peptide)
peptide: {CH2CO}-FISGKNWVKWVC-NH2
modifications: thioether N-12
SMILES: CC[C@H](C)[C@@H]1NC(=O)[C@H](Cc2ccccc2)NC(=O)CSC[C@@H](C(N)=O)NC(=O)[C@H](C(C)C)NC(=O)[C@H](Cc2c[nH]c3ccccc23)NC(=O)[C@H](CCCCN)NC(=O)[C@H](C(C)C)NC(=O)[C@H](Cc2c[nH]c3ccccc23)NC(=O)[C@H](CC(N)=O)NC(=O)[C@H](CCCCN)NC(=O)CNC(=O)[C@H](CO)NC1=O
B6: Compound 2 (peptide)
peptide: {CH2CO}-FRSGRNWVVWVC-NH2
modifications: thioether N-12
SMILES: CC(C)[C@@H]1NC(=O)[C@H](Cc2c[nH]c3ccccc23)NC(=O)[C@H](C(C)C)NC(=O)[C@H](C(C)C)NC(=O)[C@H](Cc2c[nH]c3ccccc23)NC(=O)[C@H](CC(N)=O)NC(=O)[C@H](CCCNC(=N)N)NC(=O)CNC(=O)[C@H](CO)NC(=O)[C@H](CCCNC(=N)N)NC(=O)[C@H](Cc2ccccc2)NC(=O)CSC[C@@H](C(N)=O)NC1=O
B7: Compound 4 (peptide)
peptide: {CH2CO}-FISGRNWVRWVC-NH2
modifications: thioether N-12
SMILES: CC[C@H](C)[C@@H]1NC(=O)[C@H](Cc2ccccc2)NC(=O)CSC[C@@H](C(N)=O)NC(=O)[C@H](C(C)C)NC(=O)[C@H](Cc2c[nH]c3ccccc23)NC(=O)[C@H](CCCNC(=N)N)NC(=O)[C@H](C(C)C)NC(=O)[C@H](Cc2c[nH]c3ccccc23)NC(=O)[C@H](CC(N)=O)NC(=O)[C@H](CCCNC(=N)N)NC(=O)CNC(=O)[C@H](CO)NC1=O
B8: Compound 9 (peptide)
peptide: {CH2CO}-WISGRNWVKWVC-NH2
modifications: thioether N-12
SMILES: CC[C@H](C)[C@@H]1NC(=O)[C@H](Cc2c[nH]c3ccccc23)NC(=O)CSC[C@@H](C(N)=O)NC(=O)[C@H](C(C)C)NC(=O)[C@H](Cc2c[nH]c3ccccc23)NC(=O)[C@H](CCCCN)NC(=O)[C@H](C(C)C)NC(=O)[C@H](Cc2c[nH]c3ccccc23)NC(=O)[C@H](CC(N)=O)NC(=O)[C@H](CCCNC(=N)N)NC(=O)CNC(=O)[C@H](CO)NC1=O
B9: Compound 5 (peptide)
peptide: {CH2CO}-FISGRNWVRWRC-NH2
modifications: thioether N-12
SMILES: CC[C@H](C)[C@@H]1NC(=O)[C@H](Cc2ccccc2)NC(=O)CSC[C@@H](C(N)=O)NC(=O)[C@H](CCCNC(=N)N)NC(=O)[C@H](Cc2c[nH]c3ccccc23)NC(=O)[C@H](CCCNC(=N)N)NC(=O)[C@H](C(C)C)NC(=O)[C@H](Cc2c[nH]c3ccccc23)NC(=O)[C@H](CC(N)=O)NC(=O)[C@H](CCCNC(=N)N)NC(=O)CNC(=O)[C@H](CO)NC1=O
B10: Compound 1 (peptide)
peptide: {CH2CO}-FISGRNWVVWVC-NH2
modifications: thioether N-12
SMILES: CC[C@H](C)[C@@H]1NC(=O)[C@H](Cc2ccccc2)NC(=O)CSC[C@@H](C(N)=O)NC(=O)[C@H](C(C)C)NC(=O)[C@H](Cc2c[nH]c3ccccc23)NC(=O)[C@H](C(C)C)NC(=O)[C@H](C(C)C)NC(=O)[C@H](Cc2c[nH]c3ccccc23)NC(=O)[C@H](CC(N)=O)NC(=O)[C@H](CCCNC(=N)N)NC(=O)CNC(=O)[C@H](CO)NC1=O
B11: Compound 46 (peptide)
peptide: {CH2CO}-FISGRNWV[3MH]WVC-NH2
modifications: thioether N-12
B12: Compound 50 (peptide)
peptide: {CH2CO}-[2Nal][Tle]SGRNWVKWVC-NH2
modifications: thioether N-12
SMILES: CC(C)[C@@H]1NC(=O)[C@H](Cc2c[nH]c3ccccc23)NC(=O)[C@H](CCCCN)NC(=O)[C@H](C(C)C)NC(=O)[C@H](Cc2c[nH]c3ccccc23)NC(=O)[C@H](CC(N)=O)NC(=O)[C@H](CCCNC(=N)N)NC(=O)CNC(=O)[C@H](CO)NC(=O)[C@H](C(C)(C)C)NC(=O)[C@H](Cc2ccc3ccccc3c2)NC(=O)CSC[C@@H](C(N)=O)NC1=O
B13: Compound 49 (peptide)
peptide: {CH2CO}-[2Nal][Phg]SGRNWVKWVC-NH2
modifications: thioether N-12
SMILES: CC(C)[C@@H]1NC(=O)[C@H](Cc2c[nH]c3ccccc23)NC(=O)[C@H](CCCCN)NC(=O)[C@H](C(C)C)NC(=O)[C@H](Cc2c[nH]c3ccccc23)NC(=O)[C@H](CC(N)=O)NC(=O)[C@H](CCCNC(=N)N)NC(=O)CNC(=O)[C@H](CO)NC(=O)[C@H](c2ccccc2)NC(=O)[C@H](Cc2ccc3ccccc3c2)NC(=O)CSC[C@@H](C(N)=O)NC1=O
B14: Compound 48 (peptide)
peptide: {CH2CO}-[2Nal][Nle]SGRNWVKWVC-NH2
modifications: thioether N-12
SMILES: CCCC[C@@H]1NC(=O)[C@H](Cc2ccc3ccccc3c2)NC(=O)CSC[C@@H](C(N)=O)NC(=O)[C@H](C(C)C)NC(=O)[C@H](Cc2c[nH]c3ccccc23)NC(=O)[C@H](CCCCN)NC(=O)[C@H](C(C)C)NC(=O)[C@H](Cc2c[nH]c3ccccc23)NC(=O)[C@H](CC(N)=O)NC(=O)[C@H](CCCNC(=N)N)NC(=O)CNC(=O)[C@H](CO)NC1=O
B15: Compound 39 (peptide)
peptide: {CH2CO}-[2Nal]ISGRNW[Nle]KWFC-NH2
modifications: thioether N-12
SMILES: CCCC[C@@H]1NC(=O)[C@H](Cc2c[nH]c3ccccc23)NC(=O)[C@H](CC(N)=O)NC(=O)[C@H](CCCNC(=N)N)NC(=O)CNC(=O)[C@H](CO)NC(=O)[C@H]([C@@H](C)CC)NC(=O)[C@H](Cc2ccc3ccccc3c2)NC(=O)CSC[C@@H](C(N)=O)NC(=O)[C@H](Cc2ccccc2)NC(=O)[C@H](Cc2c[nH]c3ccccc23)NC(=O)[C@H](CCCCN)NC1=O
B16: Compound 47 (peptide)
peptide: {CH2CO}-FISGRNWV[AMF]WVC-NH2
modifications: thioether N-12; reading uncertain

The binders below were run against T1, Thrombospondin human platelet (Calbiochem, 605225) (human, UniProt P07996 19-1170) (assay: cell-based or functional assay).
T1 sequence (P07996 19-1170 limits assumed): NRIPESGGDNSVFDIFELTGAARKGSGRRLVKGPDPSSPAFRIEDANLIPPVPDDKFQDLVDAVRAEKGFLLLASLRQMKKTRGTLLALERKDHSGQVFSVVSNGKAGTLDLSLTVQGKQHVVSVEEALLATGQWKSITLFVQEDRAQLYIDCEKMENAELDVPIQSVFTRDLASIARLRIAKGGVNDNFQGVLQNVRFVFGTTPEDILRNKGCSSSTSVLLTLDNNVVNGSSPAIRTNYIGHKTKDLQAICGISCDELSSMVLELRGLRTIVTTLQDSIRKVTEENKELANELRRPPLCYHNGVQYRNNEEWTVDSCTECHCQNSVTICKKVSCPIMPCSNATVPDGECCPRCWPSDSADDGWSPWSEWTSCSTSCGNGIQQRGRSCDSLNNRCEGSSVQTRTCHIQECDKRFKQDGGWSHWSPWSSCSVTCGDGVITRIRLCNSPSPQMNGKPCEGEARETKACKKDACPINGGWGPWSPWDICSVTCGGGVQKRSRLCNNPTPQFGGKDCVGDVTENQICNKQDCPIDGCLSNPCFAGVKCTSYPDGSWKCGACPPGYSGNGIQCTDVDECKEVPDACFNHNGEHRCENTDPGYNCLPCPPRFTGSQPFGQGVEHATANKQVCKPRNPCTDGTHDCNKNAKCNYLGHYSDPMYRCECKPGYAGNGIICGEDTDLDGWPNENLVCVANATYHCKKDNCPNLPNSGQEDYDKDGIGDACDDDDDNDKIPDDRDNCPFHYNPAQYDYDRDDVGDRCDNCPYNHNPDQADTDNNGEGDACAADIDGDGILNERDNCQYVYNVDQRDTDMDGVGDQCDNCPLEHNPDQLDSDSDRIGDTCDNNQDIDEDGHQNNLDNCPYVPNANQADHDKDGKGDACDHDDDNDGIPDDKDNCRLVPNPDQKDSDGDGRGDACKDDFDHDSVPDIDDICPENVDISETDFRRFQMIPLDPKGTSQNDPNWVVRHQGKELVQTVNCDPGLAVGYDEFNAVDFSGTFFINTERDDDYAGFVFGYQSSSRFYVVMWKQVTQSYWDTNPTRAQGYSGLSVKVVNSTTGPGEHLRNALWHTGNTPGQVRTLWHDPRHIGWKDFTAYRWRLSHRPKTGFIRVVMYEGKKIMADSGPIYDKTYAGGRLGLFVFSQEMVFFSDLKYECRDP

Point of comparison: B7, “Cell adhesion IC50” value 11.2 nM. Against it:
- B1 — 1.9-fold higher, 20.8 nM
- B2 — 2.3-fold higher, 26.3 nM
- B3 — 2.4-fold higher, 27.3 nM
- B4 — within 1.5-fold, 10.9 nM
- B5 — 1.8-fold higher, 20.6 nM
- B6 — 2.3-fold higher, 25.5 nM
- B8 — 2.4-fold higher, 27.3 nM
- B9 — 3-fold higher, 33.4 nM
- B10 — 3.1-fold higher, 34.9 nM

Each binder was assayed against Recombinant-hTSP1 (human, UniProt P07996 19-1170, limits assumed) (assay: SPR (Biacore T200), single-cycle kinetics, recombinant hTSP1 immobilised on NTA chip).
Recombinant-hTSP1, sequence (P07996 19-1170 limits assumed): as above
Protocol: First, 500 μM NiCl₂ was injected over an NTA-Chip (produced by GE Healthcare, BR100532) at a flow rate of 5 μL/min. for 1 minute to thereby activate NTA groups. Then, an EDC/NHS mixture was injected at a flow rate of 10 μL/min. for 7 minutes to thereby activate the carboxyl groups of dextran. Recombinant-hTSP1 was injected at a flow rate of 10 μL/min. for 7 minutes to immobilize the TSP1 on the substrate surfaces with activated NTA and carboxyl groups. Ethanolamine was injected at a flow rate of 10 μL/min. for 7 minutes to thereby deactivate unreacted, activated carboxyl groups.
Since Biacore T200 is highly responsive to change in DMSO concentrations, DMSO solutions were sequentially injected at concentrations of 4%, 4.4%, 4.8%, 5.2%, 5.6%, and 6% to correct for DMSO effects.
The analysis was conducted using the evaluation software provided with Biacore T100 and T200. A DMSO correction curve obtained by solvent correction measurements was applied for the analysis. Kinetics fitting was done on the difference data obtained by subtracting the baseline data from sample measurement data.

Point of comparison: B1, Kd 0.25 nM. Against it:
- B2 — 1.8-fold lower, 0.14 nM
- B3 — 1.8-fold higher, 0.44 nM
- B4 — 2.7-fold lower, 0.091 nM
- B5 — 2.1-fold lower, 0.12 nM
- B6 — 1.7-fold lower, 0.15 nM
- B7 — within 1.5-fold, 0.26 nM
- B8 — within 1.5-fold, 0.23 nM
- B9 — 3.6-fold higher, 0.9 nM
- B10 — 2-fold higher, 0.51 nM

Molecular target: T1, Thrombospondin human platelet …
Experiment: cell-based or functional assay
Remark: another data set of the same source

Point of comparison: B14, “Cell adhesion IC50” value 10.4 nM. Against it:
- B11 — 2.9-fold higher, 30.3 nM
- B12 — within 1.5-fold, 11.6 nM
- B13 — within 1.5-fold, 11.5 nM
- B15 — 1.6-fold higher, 16.3 nM
- B16 — 1.6-fold higher, 16.7 nM
